The results in this text go back to patent US20050069887A1, “Dna synthesis promoters dna polymerase-associated factors and utilization thereof” (priority 2001, published 2005).

For series [1], the target named is T1, KOD DNA polymerase (DNA polymerase derived from Thermococcus kodakaraensis KOD1) (Thermococcus kodakaraensis KOD1, UniProt P77933 1-1671).
T1 sequence: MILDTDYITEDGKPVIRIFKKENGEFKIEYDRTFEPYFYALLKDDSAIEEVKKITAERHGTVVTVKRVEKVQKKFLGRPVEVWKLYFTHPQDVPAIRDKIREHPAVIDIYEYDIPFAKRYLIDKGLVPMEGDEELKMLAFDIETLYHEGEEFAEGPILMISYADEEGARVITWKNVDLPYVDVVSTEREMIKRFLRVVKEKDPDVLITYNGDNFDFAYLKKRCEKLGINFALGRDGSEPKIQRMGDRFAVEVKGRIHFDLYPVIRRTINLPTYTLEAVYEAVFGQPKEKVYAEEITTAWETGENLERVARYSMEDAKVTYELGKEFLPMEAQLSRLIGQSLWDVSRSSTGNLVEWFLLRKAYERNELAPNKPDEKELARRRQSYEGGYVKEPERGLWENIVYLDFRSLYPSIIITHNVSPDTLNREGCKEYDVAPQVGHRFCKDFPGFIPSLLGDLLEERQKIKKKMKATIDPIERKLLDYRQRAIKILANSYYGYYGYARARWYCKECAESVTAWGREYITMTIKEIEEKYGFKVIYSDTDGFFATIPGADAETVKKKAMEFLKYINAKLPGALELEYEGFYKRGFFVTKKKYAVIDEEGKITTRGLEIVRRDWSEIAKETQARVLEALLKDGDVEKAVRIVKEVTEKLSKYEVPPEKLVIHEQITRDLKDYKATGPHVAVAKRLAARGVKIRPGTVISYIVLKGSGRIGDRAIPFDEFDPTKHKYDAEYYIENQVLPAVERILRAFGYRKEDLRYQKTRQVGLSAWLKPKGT
In words: cell-based or functional assay.

Series [2] deals with the molecule itself. The experiment in a line: gel filtration HPLC (TSKgel G3000SW), molecular weight against standard samples. On the technique in general: Size exclusion chromatography separates by hydrodynamic size, large species first.

B1: KOD-PCNA (proliferating cell nuclear antigen) derived from Thermococcus kodakaraensis KOD1 (other)
chain: PFEVVFDGAKEFADLIATASNLIDEAAFKFTEEGISMRAMDPSRVVLIDLNLPESIFSKYEVEEPETIGINMDQFKKILKRGKAKDTLILRKGDENFLEITFEGTAKRTFRLPLIDVEELELELPELPFTAKVVLLGEVLKEGIKDASLVSDAIKFIAKENEFTMKAEGETNEVEIRLTLEDEGLLDLEVEEETKSAYGISYLSDMVKGIGKADEVILRFGNEMPLQMEYMIRDEGRLTFLLAPRVEE
notes: also called KOD-PCNA protein; KOD-PCNA complex
For B1, the “DNA elongation rate relative to the sample with no PCNA added” value in series [1] is roughly 3 times. In series [2], the binding result is “binds”.
